Laboratory results published in patent US20050148504A1, “Cysteine protease inhibitor” (priority 2002, published 2005).

Legend:
papain [1] = biological target: papain (UniProt P00784); test: cell-based or functional assay
papain [2] = biological target: T1, papain (Carica papaya, UniProt P00784); test: cysteine protease inhibitory activity, Z-Phe-Arg-MCA fluorescence method (Barrett et al.), papain; type: biochemical; parameters: purchased Sigma Co., Ltd
T1 sequence (P00784 134-345): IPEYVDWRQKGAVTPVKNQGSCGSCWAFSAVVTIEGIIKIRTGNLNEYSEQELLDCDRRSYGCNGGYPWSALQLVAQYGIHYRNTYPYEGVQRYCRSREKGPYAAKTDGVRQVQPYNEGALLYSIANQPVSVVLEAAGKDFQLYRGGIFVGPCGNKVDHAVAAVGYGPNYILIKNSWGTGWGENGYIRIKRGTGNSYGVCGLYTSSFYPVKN
Method: Casein, a partial peptide of casein, or hydrolysate of casein which can be used for the present invention has inhibitory activity against cysteine proteases such as cathepsin B, L and papain. The cysteine protease inhibitory activity can be determined in accordance with the methods of Barrett et al (Methods in Enzymology, Vol. 80, pp. 535-561, 1981). For example, Z-Phe-Arg-MCA (Benzyloxycarbonyl-L-Phenylalanyl-L-Arginine4-Methyl-Coumaryl-7-Amide: final concentration of […]: manufactured by Peptide Institute, Inc.) is added as a substrate into a solution in which casein, a partial peptide and/or a hydrolysate of casein is dissolved in 0.1 M acetic acid buffer (pH 5.5), and then a cysteine protease (papain in the present Examples: manufactured by Sigma Co., Ltd.) solution (final concentration: 15 units/ml) is added and the whole solution is mixed to allow reaction at 37° C. for 10 minutes. After that, fluorescence intensity (excitation wavelength: 370 nm, emission wavelength: 460 nm) of AMC (7-Amino-4-Methyl-Coumarin) released from the digested substrate is measured with a fluorescence spectrometer (manufactured by Hitachi, Ltd.).
(§1) The inhibitory activity was measured with reference to the method by Barrett et al. (“Methods in Enzymology,” Vol. 80, p 535-561, 1981) as described below. Namely, Z-Phe-Arg-MCA (final concentration of […]: manufactured by Peptide Institute, Inc.) was added as a substrate to a solution containing bovine β-casein peptide mixture dissolved in a 0.1 M acetic acid buffer solution pH 5.5. Then, a cysteine protease (papain in the present test: manufactured by Sigma Co., Ltd.) solution (final concentration: 15 units/ml) was added, the whole solution was mixed and the reaction was carried out at 37° C. for 10 minutes. Subsequently, fluorescence intensity (excitation wavelength: 370 nm, emission wavelength: 460 nm) of AMC released from the digested substrate was measured with a fluorescence spectrometer (manufactured by Hitachi, Ltd.).
Z-Phe-Arg-MCA (final concentration of […]: manufactured by Peptide Institute, Inc.) was added as a substrate into a solution in which a test sample was dissolved in a 0.1 M acetic acid buffer (pH 5.5). Then, a papain solution (final concentration of 15 units/ml) as a cysteine protease solution was added and mixed, and the reaction was performed at 37° C. for 10 minutes. Subsequently, fluorescence intensity (excitation wavelength: 370 nm, emission wavelength: 460 nm) of AMC released from the digested substrate was measured with a fluorescence spectrometer (manufactured by Hitachi, Ltd.).

cathepsin B = cathepsin B (Homo sapiens, UniProt P07858); test: cysteine protease inhibitory activity, Z-Phe-Arg-MCA fluorescence method, cathepsin B; type: biochemical; settings: concentration of 10^−4 M
Method: as §1
(§2) A spectrum of cysteine protease-inhibitory activity of a test sample was measured in the same way as that of measuring the cysteine protease-inhibitory activity described in the Test Example 3, using bovine β-casein as a test sample, and papain, cathepsin B and cathepsin L as cysteine proteases.

cathepsin L = cathepsin L (Homo sapiens, UniProt P07711); test: cysteine protease inhibitory activity, Z-Phe-Arg-MCA fluorescence method, cathepsin L; type: biochemical; settings: concentration of 10^−4 M
Method: as §1, §2

papain [3] = biological target: T1, papain; test: reverse zymography using papain (SDS-polyacrylamide gel containing gelatin); settings: 12.5% SDS-polyacrylamide gel with 0.1% gelatin; papain 37° C. 10 hours; FIG. 1 lane 6

cathepsin L, sequence (P07711 114-333, species assumed): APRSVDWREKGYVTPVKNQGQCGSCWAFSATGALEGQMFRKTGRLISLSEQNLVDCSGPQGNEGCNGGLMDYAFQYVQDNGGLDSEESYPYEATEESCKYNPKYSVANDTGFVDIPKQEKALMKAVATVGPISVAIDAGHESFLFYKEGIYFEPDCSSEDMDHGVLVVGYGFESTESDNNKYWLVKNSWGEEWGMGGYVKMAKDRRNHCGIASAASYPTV

## bovine α-casein
Papain [1]
  concentration at which papain activity is almost inhibited: 100 µM

## bovine β-casein peptide: peptide from Leu of 142th residue to His of 160th residue of bovine β-casein (SEQ ID No. 2) (LTDVENLHLPLPLLQSWMH; sig_peptide (1)Oc(15) casein; listed as Bos taurus)
Papain [2]; papain 15 units/ml, pH 5.5, 37° C. 10 minutes, concentration not given
  cysteine protease inhibitory activity (papain), in words: having inhibitory activity

## human β-casein peptide: synthesized peptide having amino acid numbers 133 to 151 of SEQ ID No. 1 (human β-casein) (LTDLENLHLPLPLLQPLMQ; sig_peptide (1)Oc(15) casein; listed as Homo Sapiens)
Papain [2]; concentration of 10^−4 M
  inhibition of papain, in words: completely inhibits
Papain [2]; concentration of 10^−5 M
  inhibition of protease activity of papain: 65%

## bovine κ-casein: bovine κ-casein used as a test sample
Papain [2]; concentration of 10^−5 M
  inhibition of papain, in words: completely inhibit

## bovine κ-casein (from UniProt P02668 22-190)
Papain [1]
  concentration at which papain is completely inhibited: 10 µM

B1: human β-casein: human β-casein purified by a conventional procedure, amino acid sequence of SEQ ID No. 1 (Swiss-Prot P05814) (protein, listed as Homo Sapiens)
chain: MKVLILACLVALALARETIESLSSSEESITEYKQKVEKVKHEDQQQGEDEHQDKIYPSFQPQPLIYPFVEPIPYGFLPQNILPLAQPAVVLPVPQPEIMEVPKAKDTVYTKGRVMPVLKSPTIPFFDPQIPKLTDLENLHLPLPLLQPLMQQVPQPIPQTLALPPQPLWSVPQPKVLPIPQQVVPYPQRAVPVQALLLNQELLLNPTHQIYPVTQPLAPVHNPISV
modifications: sig_peptide (1)Oc(15) casein
Papain [2]; concentration of 10^−5 M
  inhibition of papain, in words: almost completely inhibits

B2: bovine β-casein: β-casein derived from bovine, amino acid sequence of SEQ ID No. 2 (Swiss-Prot P02666) (protein, listed as Bos taurus)
chain: MKVLILACLVALALARELEELNVPGEIVESLSSSEESITRINKKIEKFQSEEQQQTEDELQDKIHPFAQTQSLVYPFPGPIPNSLPQNIPPLTQTPVVVPPFLQPEVMGVSKVKEAMAPKHKEMPFPKYPVEPFTESQSLTLTDVENLHLPLPLLQSWMHQPHQPLPPTVMFPPQSVLSLSQSKVLPVPQKAVPYPQRDMPIQAFLLYQEPVLGPVRGPFPIIV
modifications: sig_peptide (1)Oc(15) casein
Cathepsin B
  inhibition of protease activity of cathepsin B, in words: almost inhibits
Cathepsin L
  inhibition of protease activity of cathepsin L, in words: almost inhibits
Papain [2]; concentration of 10^−5 M
  inhibition of papain, in words: completely inhibits
Papain [2]; concentration of 10^−5 M, listed as β-casein
  inhibition of papain, in words: completely inhibit
Papain [3]
  band in reverse zymography using papain: positive band
